Measured values reported in patent publication US20210380703A1 (RIGEL PHARMACEUTICALS, published 2021).

How the values were obtained:
Goat anti-Human Kappa = biological target: T1, Goat anti-Human Kappa; assay: ELISA; positive control
T1 construct: Positive control; also called biotinylated goat anti-human kappa light chain
Protocol: (§1) The binding of ACVR2A-specific monoclonal antibodies to human ACVR2A, mouse ACVR2A, biotinylated goat anti-human kappa light chain (positive control) and human Fc (negative control) were determined by ELISA.

Mouse ACVR2A = Mouse ACVR2A (mouse, UniProt P27038 20-135, limits assumed); assay: ELISA
Protocol: as §1

Human ACVR2A = biological target: T2, Human ACVR2A (human, UniProt P27037 20-135, limits assumed); assay: ELISA
T2 construct: also called activin receptor, type II A
Protocol: as §1

[1] = biological target: T3, biotinylated goat anti-human kappa light chain; assay: ELISA, positive control
T3 construct: positive control of the ELISA
Protocol: as §1
Also: test concentration or dose not given here.

Sequence of Mouse ACVR2A (P27038 20-135 limits assumed): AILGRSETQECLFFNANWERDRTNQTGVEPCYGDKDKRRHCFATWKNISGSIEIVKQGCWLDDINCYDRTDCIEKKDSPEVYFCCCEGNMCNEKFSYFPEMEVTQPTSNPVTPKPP
T2 sequence (P27037 20-135 limits assumed): as the sequence (P27038 20-135 limits assumed) above, with R20K, I73V counted along it

Row | Binder | optical density (Goat anti-Human Kappa) [OD] | optical density (Mouse ACVR2A) [OD] | optical density (Human ACVR2A) [OD] | optical density [1] [OD]
1 | 375_B03 (antibody, V domains shown, VH/VL only) VH: EVQLLESGGGLVQPGGSLRLSCAASGFTFSSYSMNWVRQAPGKGLEWVAGINYNGGYTSYADSVKGRFTISRDNSKNTLYLQMNSLRAEDTAVYYCARGATWHDTHLDYWGQGTLVTVSS VL: DIQMTQSPSSLSASVGDRVTITCRASQSILTYLNWYQQKPGKAPKLLIYAATSRASGVPSRFSGSGSGTDFTLTISSLQPEDFATYYCQQSYDSPLTFGGGTKVEIK | 3.24 | 3.7 | 3.68 | –
2 | 365_A08 (antibody, V domains shown, VH/VL only) VH: EVQLLESGGGLVQPGGSLRLSCAASGFTFSSYSMNWVRQAPGKGLEWVASINYNGGYKSYADSVKGRFTISRDNSKNTLYLQMNSLRAEDTAVYYCARGATWHDTHLDYWGQGTLVTVSS VL: DIQMTQSPSSLSASVGDRVTITCRASQSIITYLNWYQQKPGKAPKLVIYAATSRASGVPSRFSGSGSGTDFTLTISSLQPEDFATYYCQQSDNTPLTFGGGTKVEIK | 3.2 | 1.59 | 1.58 | –
3 | 365_A09 (antibody, V domains shown, VH/VL only) VH: EVQLLESGGGLVQPGGSLRLSCAASGFTFSSYGMHWVRQAPGKGLEWVASINYNGGYTSYADSVKGRFTISRDNSKNTLYLQMNSLRAEDTAVYYCARGATWHDTHLDYWGQGTLVTVSS VL: DIQMTQSPSSLSASVGDRVTITCRASQSILSYVNWYQQKPGKAPKLLIYAATSRASGVPSRFSGSGSGTDFTLTISSLQPEDFATYYCQQSYDLPLTFGGGTKVEIK | 3.3 | 2.48 | 2.45 | –
4 | 365_B11 (antibody, V domains shown, VH/VL only) VH: EVQLLESGGGLVQPGGSLRLSCAASGFTFSSYGMHWVRQAPGKGLEWVAGINYNGGYTSYADSVKGRFTISRDNSKNTLYLQMNSLRAEDTAVYYCARSANWHDTALDYWGQGTLVTVSS VL: DIQMTQSPSSLSASVGDRVTITCRASQSIISYLNWYQQKPGKAPKLVIYATTSRHSGVPSRFSGSGSGTDFTLTISSLQPEDFATYYCQQSYDSPLTFGGGTKVEIK | 3.58 | 2.75 | 2.84 | –
5 | 365_A12 (antibody, V domains shown, VH/VL only) VH: EVQLLESGGGLVQPGGSLRLSCAASGFTFSSYGMHWVRQAPGKGLEWVAGINYNGGYTSYADSVKGRFTISRDNSKNTLYLQMNSLRAEDTAVYYCAKSANWHDTHLDYWGQGTLVTVSS VL: DIQMTQSPSSLSASVGDRVTITCRASQSILTYVNWYQQKPGKAPKLLIYAATSRHSGVPSRFSGSGSGTDFTLTISSLQPEDFATYYCQQSYENPLTFGGGTKVEIK | 3.67 | 2.87 | 2.67 | –
6 | 365_A03 (antibody, V domains shown, VH/VL only) VH: EVQLLESGGGLVQPGGSLRLSCAASGFTFSSYSMNWVRQAPGKGLEWVAGINYNSGYKGYADSVKGRFTISRDNSKNTLYLQMNSLRAEDTAVYYCARSANWHDTALDYWGQGTLVTVSS VL: DIQMTQSPSSLSASVGDRVTITCRASQSILSYLNWYQQKPGKAPKLVIYAVTSRASGVPSRFSGSGSGTDFTLTISSLQPEDFATYYCQQSYDSPLTFGGGTKVEIK | 3.44 | 3.24 | 3.4 | –
7 | 365_B07 (antibody, V domains shown, VH/VL only) VH: EVQLLESGGGLVQPGGSLRLSCAASGFTFSSYGMHWVRQAPGKGLEWVASINYNSGYTSYADSVKGRFTISRDNSKNTLYLQMNSLRAEDTAVYYCARSANWHDTALDYWGQGTLVTVSS VL: DIQMTQSPSSLSASVGDRVTITCRASQSILTYLNWYQQKPGKAPKLLIYAATSRASGVPSRFSGSGSGTDFTLTISSLQPEDFATYYCQQSYENPLTFGGGTKVEIK | 3.23 | 2.21 | 2.11 | –
8 | 365_A11 (antibody, V domains shown, VH/VL only) VH: EVQLLESGGGLVQPGGSLRLSCAASGFTFDDYGMNWVRQAPGKGLEWVSGINYNSGYTSYADSVKGRFTISRDNSKNTLYLQMNSLRAEDTAVYYCARSANWHDTALDYWGQGTLVTVSS VL: DIQMTQSPSSLSASVGDRVTITCRASQSILSYLNWYQQKPGKAPKLVIYAATSLASGVPSRFSGSGSGTDFTLTISSLQPEDFATYYCQQSYESPLTFGGGTKVEIK | 3.27 | 1.94 | 2.04 | –

Further lines, results first:

Row | optical density (Goat anti-Human Kappa) [OD] | optical density (Mouse ACVR2A) [OD] | optical density (Human ACVR2A) [OD] | optical density [1] [OD] | Binder
9 | – | – | – | 3.1 | 369_F08 (antibody, V domains shown, Group III) VH: EVQLLESGGGLVQPGGSLRLSCAASGFTFSDYGMHWVRQAPGKGLEWVSGINYNSGYTSYADSVKGRFTISRDNSKNTLYLQMNSLRAEDTAVYYCARGANWHDTALDYWGQGTLVTVSS VL: DIQMTQSPSSLSASVGDRVTITCRASQSILSYLNWYQQKPGKAPKLLIYAASSLQSGVPSRFSGSGSGTDFTLTISSLQPEDFATYYCQQSYDLPLTFGGGTKVEIK
10 | 3.41 | 2.44 | 2.45 | – | 365_C10 (antibody, V domains shown, VH/VL only) VH: EVQLLESGGGLVQPGGSLRLSCAASGFTFSSYGMHWVRQAPGKGLEWVASINYNGGYTSYADSVKGRFTISRDNSKNTLYLQMNSLRAEDTAVYYCARSANWHDTALDYWGQGTLVTVSS VL: DIQMTQSPSSLSASVGDRVTITCRASQSILSYVNWYQQKPGKAPKLLIYAATSLASGVPSRFSGSGSGTDFTLTISSLQPEDFATYYCQQSYESPLTFGGGTKVEIK
11 | 3.45 | 2.33 | 2.15 | – | 365_C02 (antibody, V domains shown, VH/VL only) VH: EVQLLESGGGLVQPGGSLRLSCAASGFTFDSYSMNWVRQAPGKGLEWVSNINYNGGYKGYADSVKGRFTISRDNSKNTLYLQMNSLRAEDTAVYYCARGATWHDTHLDYWGQGTLVTVSS VL: DIQMTQSPSSLSASVGDRVTITCRASQSISTYLNWYQQKPGKAPKLVIYAATSRHSGVPSRFSGSGSGTDFTLTISSLQPEDFATYYCQQSYENPLTFGGGTKVEIK
12 | 3.53 | 2.61 | 2.57 | – | 365_D12 (antibody, V domains shown, VH/VL only) VH: EVQLLESGGGLVQPGGSLRLSCAASGFTFDSYGMNWVRQAPGKGLEWVSNINYNGGYTGYADSVKGRFTISRDNSKNTLYLQMNSLRAEDTAVYYCARSANWHDTALDYWGQGTLVTVSS VL: DIQMTQSPSSLSASVGDRVTITCRASQSIVTYLNWYQQKPGKAPKLVIYAATSRASGVPSRFSGSGSGTDFTLTISSLQPEDFATYYCQQSYDTPLTFGGGTKVEIK
13 | 3.55 | 2.67 | 2.26 | – | 365_C04 (antibody, V domains shown, VH/VL only) VH: EVQLLESGGGLVQPGGSLRLSCAASGFTFDSYSMNWVRQAPGKGLEWVANINYNGGYKGYADSVKGRFTISRDNSKNTLYLQMNSLRAEDTAVYYCARGATWHDTHLDYWGQGTLVTVSS VL: DIQMTQSPSSLSASVGDRVTITCRASQSILTYLNWYQQKPGKAPKLVIYAATSLASGVPSRFSGSGSGTDFTLTISSLQPEDFATYYCQQSYDTPLTFGGGTKVEIK
14 | 3.38 | 1.35 | 1.52 | – | 365_D09 (antibody, V domains shown, VH/VL only) VH: EVQLLESGGGLVQPGGSLRLSCAASGFTFSSYGMHWVRQAPGKGLEWVSGINYNSGYTSYADSVKGRFTISRDNSKNTLYLQMNSLRAEDTAVYYCARSANWHDTALDYWGQGTLVTVSS VL: DIQMTQSPSSLSASVGDRVTITCRASQSILSYLNWYQQKPGKAPKLLIYAATSRASGVPSRFSGSGSGTDFTLTISSLQPEDFATYYCQQSDESPLTFGGGTKVEIK
15 | 3.27 | 2.24 | 2.39 | – | 365_D10 (antibody, V domains shown, VH/VL only) VH: EVQLLESGGGLVQPGGSLRLSCAASGFTFSSYSMNWVRQAPGKGLEWVAGINYNGGYTGYADSVKGRFTISRDNSKNTLYLQMNSLRAEDTAVYYCARGATWHDTHLDYWGQGTLVTVSS VL: DIQMTQSPSSLSASVGDRVTITCRASQSISTYLNWYQQKPGKAPKLLIYAATSRASGVPSRFSGSGSGTDFTLTISSLQPEDFATYYCQQSYESPLTFGGGTKVEIK
16 | 3.67 | 2.78 | 2.66 | – | 365_C11 (antibody, V domains shown, VH/VL only) VH: EVQLLESGGGLVQPGGSLRLSCAASGFTFSSYSMNWVRQAPGKGLEWVAGINYNGGYKSYADSVKGRFTISRDNSKNTLYLQMNSLRAEDTAVYYCARSANWHDTHLDYWGQGTLVTVSS VL: DIQMTQSPSSLSASVGDRVTITCRASQSIITYLNWYQQKPGKAPKLVIYAVTSRASGVPSRFSGSGSGTDFTLTISSLQPEDFATYYCQQSYSLPLTFGGGTKVEIK
17 | 3.52 | 2.7 | 2.54 | – | 365_D02 (antibody, V domains shown, VH/VL only) VH: EVQLLESGGGLVQPGGSLRLSCAASGFTFSSYSMHWVRQAPGKGLEWVASINYNGGYTSYADSVKGRFTISRDNSKNTLYLQMNSLRAEDTAVYYCARGATWHDTHLDYWGQGTLVTVSS VL: DIQMTQSPSSLSASVGDRVTITCRASQSIVTYLNWYQQKPGKAPKLLIYAATSLASGVPSRFSGSGSGTDFTLTISSLQPEDFATYYCQQSYDNPLTFGGGTKVEIK
18 | 3.38 | 2.22 | 2.34 | – | 365_D11 (antibody, V domains shown, VH/VL only) VH: EVQLLESGGGLVQPGGSLRLSCAASGFTFDSYGMNWVRQAPGKGLEWVSNINYNSGYTSYADSVKGRFTISRDNSKNTLYLQMNSLRAEDTAVYYCARSANWHDTALDYWGQGTLVTVSS VL: DIQMTQSPSSLSASVGDRVTITCRASQSIVSYLNWYQQKPGKAPKLVIYAATSRASGVPSRFSGSGSGTDFTLTISSLQPEDFATYYCQQSYSSPLTFGGGTKVEIK
19 | 3.38 | 2.06 | 1.83 | – | 365_D07 (antibody, V domains shown, VH/VL only) VH: EVQLLESGGGLVQPGGSLRLSCAASGFTFSSYGMNWVRQAPGKGLEWVSSINYNSGYKSYADSVKGRFTISRDNSKNTLYLQMNSLRAEDTAVYYCARGATWHDTHLDYWGQGTLVTVSS VL: not shown
